# In patent publication US20150025225A1 (SHIONOGI, published 2015):
# T1: Baboon EL-C2 tag (baboon, UniProt Q9Y5X9 21-500 (human entry), limits assumed)
# T1 construct: used as heparin extract of transfected HEK293F cells; also called baboon EL heparin extract
# T1 chain: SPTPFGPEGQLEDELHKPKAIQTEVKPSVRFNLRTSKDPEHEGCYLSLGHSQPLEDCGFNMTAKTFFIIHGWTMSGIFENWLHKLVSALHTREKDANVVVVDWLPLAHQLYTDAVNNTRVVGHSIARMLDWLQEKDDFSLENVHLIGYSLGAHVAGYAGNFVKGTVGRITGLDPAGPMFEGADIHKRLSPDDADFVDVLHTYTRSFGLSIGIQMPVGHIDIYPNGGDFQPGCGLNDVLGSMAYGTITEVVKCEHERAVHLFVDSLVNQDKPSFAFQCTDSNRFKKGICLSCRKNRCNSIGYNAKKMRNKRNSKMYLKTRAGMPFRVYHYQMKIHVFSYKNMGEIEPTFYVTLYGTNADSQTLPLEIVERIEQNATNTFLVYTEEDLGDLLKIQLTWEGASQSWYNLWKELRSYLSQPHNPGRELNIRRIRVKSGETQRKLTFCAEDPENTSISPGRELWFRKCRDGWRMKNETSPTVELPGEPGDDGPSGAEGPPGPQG
# B1: 47B2 antibody (antibody, IgG2a, V domains shown)
# VH: QVALKESGPGILQPSQTLSLTCSFSGFSLSTSGMGVGWIRQPSGKGLEWLAHIWWHGNKYYSTGLKSRLTISKDTSNNQVFLKIASVDTADTATYYCARISAGYPLDYWGQGTSVTVSS
# VL: DIQMTQSPSSLSASLGGKVTITCKASQDINKYIVWYQHKPGKGPRLLIHYTSTLQPGFPSRFSGSGSGRDYSLSITNLEPEDIATYYCLQYDNLLWTFGGGTKLEIK
# Biological target: T1, Baboon EL-C2 tag
# Assay: ELISA-type titration, A450 against antibody concentration; protocol not described in the text
binder,measurement,value
B1,EC50 (read off the curve),~10 ng/mL
